Entries after “also recorded” stand apart in the source; their conditions may differ. Where two headings read alike, the source gives them in different places. Non-standard residues stand in square brackets, D forms with d. Residues, ends and D or L forms follow the SMILES beside them.

Data set [1] deals with T1, lysostaphin CWT domain (Staphylococcus simulans, UniProt P10547).
T1 construct: DNA encoding the CWT domain (residues 402-493) was amplified; GST (from the pGEX-2T vector); made in house; host or cells: E. coli BL21 (DE3)
Format: binding. The procedure:
The pentaglycine binding site on the CWT domain was determined by comparing the ^1H, ^15N, and ^1H, ^13C HSQC spectra of full-length lysostaphin and CWT domain acquired in the presence and absence of a large amount, ~170 molar excess, of KGGGGG and GGGGGK hexapeptides (Sigma-Aldrich). […] CSPs, calculated as Δδ = (ΔδH^2+(0.154 × ΔδN)^2)^1/2, were plotted as a function of the molar ratio of titrated ligand to CWT domain. Dissociation constants for individual residues were obtained by nonlinear least squares fitting, as implemented in the program xcrvfit (www.bionmr.ualberta.ca/bds/software/xcrvfit). Site-specific dissociation constants were calculated as averages of dissociation constants of individual residues within the site. In all binding site studies protein to zinc concentration ratio was 1:1.

The conditions of data set [2]: effect of presence of lysine, relative to pentaglycine.
Data set [3] in a line: Pentaglycine cleavage by lysostaphin monitored by 1H NMR. Type of data set: biochemical. The note with it: for Relative activity: PBS pH 7.2, 21 h, 37 °C. The procedure:
Pentaglycine cleavage by lysostaphin was monitored by ^1H NMR as described previously (Raulinaitis et al., [2017a]). Reactions took place in phosphate buffer saline (PBS), pH 7.2, with >90% D2O by volume as a solvent and final volumes were 600 μL. Initial pentaglycine (Sigma-Aldrich) and lysostaphin concentrations were 1 mM and 2.25 μM, respectively. Metal ions (ZnCl2, CoCl2, CuCl2, and MnCl2) were added as needed. Residual activity of lysostaphin “apo” form was taken into account in activity calculations. Measurements were carried out by using a Bruker Avance III 600 MHz spectrometer, equipped with a QCI ^1H/^13C/^15N/^31P cryoprobe and a SampleJet automated sample changer. The preheater of the sample changer was used for sample incubation when product formation was measured as a time series with 3-h intervals for 48 h. Single time-point samples were incubated in an incubator for 21 h and reactions were quenched by heating at 90°C for 15 min before proton spectra acquisitions at 37°C. The data were processed with Bruker TopSpin 3.5 software.
Proton NMR allows for direct and real-time reaction monitoring devoid of intricacies of cellular suspension (Raulinaitis et al., [2017a]). Scission of pentaglycine by lysostaphin was monitored for 48 h by ^1H NMR and under conditions of this study its catalytic rate appeared to be limited only by saturation with the substrate (Supplementary Figure 4). The substrate turnover rate by the enzyme in the first 3 h of the reaction is estimated to be in the order of 0.006 s^−1.
Figure 4 Lysostaphin activity dependence on zinc, cobalt, copper and manganese cofactors. Lysostaphin was incubated with pentaglycine (2.25 μM and 1 mM concentrations, respectively) in PBS buffer, pH 7.2, for 21 h at 37°C. Total cofactor ratios to protein were 1:1 and 3:1, EDTA excess was 70-fold. […] Activity was adjusted to one zinc-bound lysostaphin as 100% reference point. Bars represent standard error of the mean (S.E.M) of at least three independent measurements. TEXT PRINTED IN THE PICTURE: 1 Zn: Relative activity, %: 100.0 | 3 Zn: Relative activity, %: 79.8 | 1 Cu: Relative activity, %: 96.4 | 3 Cu: Relative activity, %: 183.3 | 1 Mn: Relative activity, %: 38.8 | 3 Mn: Relative activity, %: 40.3 | 1 Co: Relative activity, %: 79.1 | 100 EDTA: Relative activity, %: 12.8

Data set [4] has as its system CWT binding to S. aureus cells. On the set-up: method as in Gründling and Schneewind, 2006. The note with it: excess of pentaglycine; ref Gründling and Schneewind, 2006; cited from earlier work.
Data set [5] has as its target T2, lysostaphin cell wall targeting (CWT) domain (residues 402-493) (Staphylococcus simulans, UniProt P10547 402-493).
T2 construct: also called targeting domain; SH3b domain; source: E. coli BL21 (DE3), purified (Glutathione Sepharose, thrombin release, gel filtration on Superdex 75)
The data set is described as follows: NMR titration; 1H,15N and 1H,13C HSQC spectra of the CWT domain with and without ~170 molar excess of hexapeptide; chemical shift perturbations; protein to zinc 1:1. The note with it: both partners purified.

Where [6] appears, read: ~80 molar excess of the peptide, data not shown.

T1 sequence (P10547 402-493): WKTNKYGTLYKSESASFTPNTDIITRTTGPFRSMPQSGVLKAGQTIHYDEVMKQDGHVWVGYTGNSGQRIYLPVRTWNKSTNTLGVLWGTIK
T2 sequence (P10547 402-493): as above

Turning to `C[C@H](N)C(=O)N[C@H](CCC(=O)O)C(=O)N[C@@H](CCCCN)C(=O)NCC(=O)NCC(=O)NCC(=O)NCC(=O)NCC(=O)N[C@@H](C)C(=O)N[C@H](CCC(=O)O)C(=O)N[C@@H](CCCCN)C(=O)N[C@H](C)C(=O)O` (H-A[dE]KGGGGGA[dE]K[dA]-OH; N-terminus and C-terminus assumed), the CSPs entry in data set [1] (~24 molar excess) is reported as “significant CSPs”.
Regarding “GGGGGK [G5K, pentaglycine lysine derivative, hexapeptide (Sigma-Aldrich)]”, the solubility result in data set [2] is “significantly enhanced the solubility”. Moreover, the “Largest peak shifts, Δδ (CSP)” value in data set [1] (residues N405, Y411, G430-F432, V452, M453, Y472, ~170 molar excess) is not below 0.10 ppm.
KGGGGG [KG5]: the solubility result in data set [2] is “significantly enhanced the solubility”.
With “Lysostaphin: S. simulans zinc-dependent endopeptidase with N-terminal catalytic domain and C-terminal cell wall targeting domain”, the Relative activity in data set [3] (1 Co (1:1 cofactor to protein), adjusted to one zinc-bound lysostaphin = 100%, 2.25 μM lysostaphin, 1 mM pentaglycine, n ≥ 3) turned out to be 79.1%; in data set [3] (1 Cu (1:1 cofactor to protein), adjusted to one zinc-bound lysostaphin = 100%, 2.25 μM lysostaphin, 1 mM pentaglycine, n ≥ 3) it was 96.4%; in data set [3] (1 Mn (1:1 cofactor to protein), adjusted to one zinc-bound lysostaphin = 100%, 2.25 μM lysostaphin, 1 mM pentaglycine, n ≥ 3), 38.8%; in data set [3] (1 Zn (1:1 cofactor to protein), reference point 100%, 2.25 μM lysostaphin, 1 mM pentaglycine, at least three independent measurements), 100.0%; in data set [3] (3 Cu (3:1 cofactor to protein), adjusted to one zinc-bound lysostaphin = 100%, 2.25 μM lysostaphin, 1 mM pentaglycine, n ≥ 3), 183.3%; in data set [3] (3 Mn (3:1 cofactor to protein), adjusted to one zinc-bound lysostaphin = 100%, 2.25 μM lysostaphin, 1 mM pentaglycine, n ≥ 3), 40.3%. Also, the Relative activity in data set [3] (3 Zn (3:1 cofactor to protein), adjusted to one zinc-bound lysostaphin = 100%, 2.25 μM lysostaphin, 1 mM pentaglycine, n ≥ 3) came to 79.8%; in data set [3] (100 EDTA (EDTA excess, residual activity), adjusted to one zinc-bound lysostaphin = 100%, 2.25 μM lysostaphin, 1 mM pentaglycine, n ≥ 3), 12.8%. The “change of catalytic activity” value is “activity increases” in data set [3] (Cu^2+ in excess); “reduces lysostaphin pentaglycine cleaving activity; also recorded: partial inhibition” in data set [3] (excess of zinc (second zinc bound by catalytic histidines H329 and H360)). The “cofactor suitability for catalytic activity” value is on record as “weak cofactor” in data set [3] (Mn^2+); “suitable cofactors” in data set [3] (metal cations Zn^2+, Co^2+, and Cu^2+). Moreover, in data set [3] (first 3 h of the reaction, 1 mM pentaglycine, 2.25 μM lysostaphin, PBS pH 7.2, 37 °C, 1H NMR every 3 h for 48 h, estimated), the substrate turnover rate was approximately 0.006 s⁻¹.
On to “N-acetylmuramyl-L-alanyl-D-isoglutamine hydrate [N-acetylmuramyl-L-A-D-γ-Q hydrate]”, for which, in data set [1] (setting [6]), the CSPs entry is “very small CSPs” and the “affinity of CWT domain” value is recorded as “no significant affinity”.
Regarding pentaglycine, the “blocking of CWT binding to S. aureus cells” value in data set [4] is recorded as “cannot be blocked”. Further, the “affinity of targeting (CWT) domain in words” value in data set [1] (abstract / conclusions summary) is reported as “very low affinity; also recorded: extremely low affinity”.

B1: GGGGGK hexapeptide (peptide)
peptide: GGGGGK
notes: also called G5K; source: bought: Sigma-Aldrich
As a reminder, the Kd is the equilibrium constant for the complex coming apart. For the molecule B1, the Kd in data set [5] is more than 10 mM.

The values above are taken from paper PMC6038053, “Structural and Functional Insights Into Lysostaphin–Substrate Interaction” (Frontiers in Molecular Biosciences, 2018).
